Data on 4 molecules can be found in US20030092616A1, “STAT6 activation gene” (priority 2001, published 2003).

To fix the notation:
B1: 397 (nucleic acid, listed as Homo sapiens)
chain: ACAGATGAAACTTTTTAGGTCTCAAAGAAATCTTTACATTTCTGGATTTTCCCTATTTTTTTGGCTAGTTTTGAGACGTCTGGTTACGCTTATTACTCAACTGGCAAAAGAACTGTCAAACAAAGGTGTACTTAAAACTCAAGCAGAAAATACTAACAAGGCTGCCAAAAAATTTATGGAAGAAAACGAAAAACTAAAAAGGATTTTGAAAAGCCATGGTAAAGATGAAGAATGTGTTTTGGAAGCAGAAAATAAAAAACTAGTAGAAGACCAGGAGAAACTGAAAACTGAATTAAGGAAGACTTCAGATGCCCTTTCTAAGGCACAAAATGATGTGATGGAAATGAAGATGCAGTCAGAGAGACTTTCGAAAGAATATGATCAACTCCTGAAAGAACACTCTGAACTTCAGGATCGTTTAGAAAGAGGCAACAAGAAAAGACTGTGAACTTTATAAAAGACACTTGCAATATACTGTGTCAAAATGATAATTTTGTTATGTTAGCCTCTAGAAAATTTAAGTTCAGAAAAATGCACTATGACCGGTTCGTAATTTTTTTAATGCCACACATAGGTTGTATTGTAATGGCATTATCAAAATATTTGATGATGTTTCAGATATATTGCAAAGTCTGTATTCCAGCTCTTAAGAAAAATATAAGCATGTTAAATACCATATTTACATATTGATAATGTCATTGGTATATGGTGGCTGTTTACCAATAAAAGGAAAAAATTCATT
modifications: CDS (5)..(445)
B2: 417 (nucleic acid, listed as Homo sapiens)
chain: ATTCCTCCCAGGGACCCCAGACCTCTGTCTCTCTCGGCAGGCCTTGGCTCCTTGAACTTTTGGCCGCCATGTACTTCCCGAAGGTCCTCTCTGATGACATGAAGAAGCTGAAGGCCCGAATGCACCAGGCCATAGAAAGATTTTATGATAAAATGCAAAATGCAGAATCAGGACGTGGACAGGTGATGTCGAGCCTGGCAGAGCTGGAGGACGACTTCAAAGAGGGCTACCTGGAGACAGTGGCGGCTTATTATGAGGAGCAGCACCCAGAGCTCACTCCTCTACTTGAAAAAGAAAGAGATGGATTACGGTGCCGAGGCAACAGATCCCCTGTCCCGGATGTTGAGGATCCCGCAACCGAGGAGCCTGGGGAGAGCTTTTGTGACAAGGTCATGAGATGGTTCCAGGCCATGCTGCAGCGGCTGCAGACCTGGTGGCACGGGGTTCTGGCCTGGGTGAAGGAGAAGGTGGTGGCCCTGGTCCATGCAGTGCAGGCCCTCTGGAAACAGTTCCAGAGTTTCTGCTGCTCTCTGTCAGAGCTCTTCATGTCCTCTTTCCAGTCCTACGGAGCCCCACGGGGGGACAAGGAGGAGCTGACACCCCAGAAGTGCTCTGAACCCCAATCCTCAAAATGAAGATACTGACACCACCTTTGCCCTCCCCGTCACCGCGCACCCACCCTGACCCCTCCCTCAGCTGTCCTGTGCCCCGCCCTCTCCCGCACACTCAGTCCCCCTGCCTGGCGTTCCTGCCGCAGCTCTGACCTGGTGCTGTCGCCCTGGCATCTTAATAAAACCTGCTTATACTTCCCTGGC
modifications: CDS (69)..(632)
B3: 117 (nucleic acid, listed as Homo sapiens)
chain: GAGCGGCGATGCCGGGGCGGCGGCGCCCGAGTCCGGAGCCCGAGCCCGAAGAGGAGCCGCCCCGGCCCCGCGCCCCCCCGGGAGCTCCGGGCCCTGGGCCTGGTTCGGGAGCCCCCGGCAGCCAAGAGGAGGAGGAGGAGCCGGGACTGGTCGAGGGTGACCCGGGGGACGGCGCCATTGAGGACCCGGAGCTGGAAGCTATCAAAGCTCGAGTCAGGGAGATGGAGGAAGAAGCTGAGAAGCTAAAGGAGCTACAGAACGAGGTAGAGAAGCAGATGAATATGAGTCCACCTCCAGGCAATGCTGGCCCGGTGATCATGTCCATTGAGGAGAAGATGGAGGCTGATGCCCGTTCCATCTATGTTGGCAATGTGGACTATGGTGCAACAGCAGAAGAGCTGGAAGCTCACTTTCATGGCTGTGGTTCAGTCAACCGTGTTACCATACTGTGTGACAAATTTAGTGGCCATCCCAAAGGGTTTGCGTATATAGAGTTCTCAGACAAAGAGTCAGTGAGGACTTCCTTGGCCTTAGATGAGTCCCTATTTAGAGGAAGGCAAATCAAGGTGATCCCAAAACGAACCAACAGACCAGGCATCAGCACAACAGACCGGGGTTTTCCACGAGCCCGCTACCGCGCCCGGACCACCAACTACAACAGCTCCCGCTCTCGATTCTACAGTGGTTTTAACAGCAGGCCCCGGGGTCGCGTCTACAGGGGCCGGGCTAGAGCGACATCATGGTATTCCCCTTACTAAAAAAAGTGTGTATTAGGAGGAGAGAGAGGAAAAAAAGAGGAAAGAAGGAAAAAAAAAAGAATTAAAAAAAAAAAAAAGAAAAAC
modifications: CDS (9)..(755)
B4: 413 (nucleic acid, listed as Homo sapiens)
chain: GAGGAGGCCGCGCCAGTGACAGCGATGGCGGCGGAGTCGGCGCTCCAAGTTGTGGAGAAGCTGCAGGCGCGCCTGGCCGCGAACCCGGACCCTAAGAAGCTATTGAAATATTTGAAGAAACTCTCCACCCTGCCTATTACAGTAGACATTCTTGCGGAGACTGGGGTTGGGAAAACAGTAAATAGCTTGCGAAAACACGAGCATGTTGGAAGCTTTGCCAGGGACCTAGTGGCCCAGTGGAAGAAGCTGGTTCCTGTGGAACGAAATGCTGAGCCTGATGAACAGGACTTTGAGAAGAGCAATTCCCGAAAGCGCCCTCGGGATGCCCTGCAGAAGGAGGAGGAGATGGAGGGGGACTACCAAGAAACCTGGAAAGCCACGGGGAGCCGATCCTATAGCCCTGACCACAGGCAGAAGAAACATAGGAAACTCTCGGAGCTCGAGAGACCTCACAAAGTGTCTCACGGTCATGAGAGGAGAGATGAGAGAAAGAGGTGTCACAGAATGTCACCAACTTACTCTTCAGACCCTGAGTCTTCTGATTATGGCCATGTTCAATCCCCTCCATCTTGTACCAGTCCTCATCAGATGTACGTCGACCACTACAGATCCCTGGAGGAGGACCAGGAGCCCATTGTTTCACACCAGAAGCCTGGGAAAGGCCACAGCAATGCCTTTCAGGACAGACTCGGGGCCAGCCAAGAACGACACCTGGGTGAACCCCATGGGAAAGGGGTTGTGAGTCAAAACAAGGAGCACAAATCTTCCCACAAGGACAAACGCCCCGTGGATGCCAAGAGTGATGAGAAGGCCTCTGTGGTGAGCAGAGAGAAATCACACAAGGCCCTCTCCAAAGAGGAGCCGGCCTATGATGGCCCAAGCACCAGCAGTGCCCACTTGGCACCAGTGGTCAGCAGCACTGTTTCCTATGATCCTAGGAAACCCACTGTGAAGAAAATTGCCCCAATGATGGCCAAGACAATTAAAGCTTTCAAGAACAGATTCTCCCGACGATAAACTGAGGACTTGCCTTGGAAATGGAATCTGGGGAGGCAGGAATACAAGGACAGTGGGGGTTGGGGAATGGAATTCTACAGGAGACTGGAGTCTTGCTTTGTGGATCCTTTTGGTCTCCGAGTCCTGCAGTCTGCAGGTGCTGCCCCTGGGAACCTGCGTGCCACAGCCCCGCCTCCCTGCCTGGAGCACACTTTAGAATTCTGAAGATGTGAAGCCTCTGTCTCACTGAGGATTTTAAAGGTCAATTATACTTTTGTTGTTCATTAGCATCTTTGTAAACTATAAGACGTAGTTTTAATTAATAAATATTGCCCCCAGATTGTATTT
modifications: CDS (25)..(1014)

The test system of this data set is STAT6. Briefly: Screening of full-length cDNA clones for promotion of STAT6 activation (luciferase reporter N4×8-luc). It counts as cell-based. As to conditions: NIH3T3 cells cotransfected with N4×8-luc reporter and cDNA plasmid; 48 h culture, then mouse IL-4 0.5 ng/ml for 6 h. A digest of the protocol: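 NIH3T3 cells cotransfected with STAT6-responsive N4×8-luc reporter (100 ng) and full-length cDNA, cultured 48 h, then given mouse IL-4 at 0.5 ng/ml final for 6 h. Luciferase activity compared with reporter plus null-vector control.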
B1: the “Activity = (luciferase activity of the gene of each SEQ ID NO:)/(luciferase activity of pME18S-FL3)” value is 32.6. As for B2, the figure is 13.4; as for B3, 10.1; as for B4, 3.4.
